The test concerns the target activated β1 integrin on bovine capillary endothelial (CE) cells (bovine) (UniProt P53712). In words: cell-based or functional assay.

activated β1 integrin on bovine capillary endothelial (CE) cells (bovine), sequence (P53712 21-798): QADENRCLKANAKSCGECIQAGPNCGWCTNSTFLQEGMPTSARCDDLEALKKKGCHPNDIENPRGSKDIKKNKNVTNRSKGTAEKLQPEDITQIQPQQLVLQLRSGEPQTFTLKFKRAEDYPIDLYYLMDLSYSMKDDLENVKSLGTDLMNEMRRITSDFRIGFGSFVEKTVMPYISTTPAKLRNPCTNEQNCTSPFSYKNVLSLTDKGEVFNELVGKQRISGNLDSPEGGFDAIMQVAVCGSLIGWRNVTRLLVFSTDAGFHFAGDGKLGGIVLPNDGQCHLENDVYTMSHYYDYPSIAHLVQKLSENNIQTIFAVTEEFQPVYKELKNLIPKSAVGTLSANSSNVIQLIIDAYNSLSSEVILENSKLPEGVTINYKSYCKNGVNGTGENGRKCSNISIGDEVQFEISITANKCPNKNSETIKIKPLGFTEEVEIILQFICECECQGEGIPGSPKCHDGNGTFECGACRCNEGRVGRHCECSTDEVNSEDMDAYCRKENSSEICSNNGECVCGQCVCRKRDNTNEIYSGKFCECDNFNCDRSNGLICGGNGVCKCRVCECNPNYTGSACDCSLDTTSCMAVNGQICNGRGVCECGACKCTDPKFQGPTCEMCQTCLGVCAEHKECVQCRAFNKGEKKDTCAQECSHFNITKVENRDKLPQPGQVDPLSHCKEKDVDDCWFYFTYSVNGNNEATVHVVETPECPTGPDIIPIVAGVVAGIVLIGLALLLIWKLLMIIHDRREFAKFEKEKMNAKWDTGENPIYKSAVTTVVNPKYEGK

“function-blocking anti-β1 integrin (P5D2) antibody”: the decrease in strain-induced cell realignment stood at 70%.
